Results on 39 sequences are retold here after the supplement of paper PMC9732359.

A short description of the series: protein stability index of a GFP-peptide fusion (yeast GPS) (PSI 1-4); higher = more stable; sorted into four equal gates, so the index is relative within each strain. The procedure, abridged: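 Peptides tiling yeast proteins in 17-residue segments were fused downstream of GFP, with Cherry expressed from the same plasmid. As a pooled library in yeast, mid-log cultures grown in leucine-free medium were sorted into four equal gates by GFP/Cherry fluorescence ratio. Gate plasmids were PCR-amplified and Illumina-sequenced, and barcodes linked reads to strains. Each peptide received a protein stability index equal to the sum of each gate's read frequency times its gate number.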

± gives the uncertainty stated by the source.

Turning to LDCDGGFIDASCIAVMA [RRP45], the protein stability index stood at 1.87 ± 0.047 (doa10∆), 1.56 ± 0.049 (pdr5∆), 2.67 ± 0.071 (san1∆) and 1.56 ± 0.04 (ubr1∆).

With EMGYLIQISKLHYTPIE [RPC82], the protein stability index was determined as 1.51 ± 0.063 (doa10∆), 2.06 ± 0.081 (pdr5∆), 1.95 ± 0.13 (san1∆) and 1.47 ± 0.055 (ubr1∆).

On to IVLGVKDLQENLLVLRG [RPO21], for which the protein stability index by setting is: (doa10∆) 1.43 ± 0.078; (pdr5∆) 1.35 ± 0.057; (san1∆) 2.87 ± 0.059; (ubr1∆) 1.5 ± 0.071.

As to YSENGKHDSLRYRLLSD [RPN1], the protein stability index is, setting by setting: (doa10∆) 2.5 ± 0.073; (pdr5∆) 2.49 ± 0.075; (san1∆) 2.51 ± 0.1; (ubr1∆) 2.49 ± 0.1.

GVKNNLLTPKSGEPIIA [RPO31] displayed a protein stability index (ubr1∆) of 2.62 ± 0.22.

Take VDENDEVLLAGFGRKGK [RPS23A]: the protein stability index by setting is: (doa10∆) 1.08 ± 0.084; (pdr5∆) 1.41 ± 0.076; (san1∆) 1.15 ± 0.11; (ubr1∆) 1.24 ± 0.068.

As to SLPFLLRHMPLASIPDI [SSN2], the protein stability index runs as follows: (doa10∆) 1.94 ± 0.072; (pdr5∆) 1.69 ± 0.055; (san1∆) 1.5 ± 0.072; (ubr1∆) 1.44 ± 0.045.

Take LEYNVALNDVYLDADVA [YML031W/NDC1]: the protein stability index by setting is: (doa10∆) 3.32 ± 0.13; (pdr5∆) 3.33 ± 0.13; (san1∆) 3.05 ± 0.12.

As for AYRTDVIQALGGIETIL [PRP8], the protein stability index came to 1.44 ± 0.073 (doa10∆), 1.54 ± 0.066 (pdr5∆), 1.46 ± 0.13 (san1∆) and 1.45 ± 0.054 (ubr1∆).

On to LKTRDWIVVLPWFWLLP [POP1], for which the protein stability index runs as follows: (doa10∆) 1.51 ± 0.12; (san1∆) 1.5 ± 0.23; (ubr1∆) 2.02 ± 0.1.

With GYDRHITIFSPEGRLYQ [SCL1], the protein stability index runs as follows: (doa10∆) 2.76 ± 0.11; (pdr5∆) 2.84 ± 0.082; (san1∆) 2.96 ± 0.057; (ubr1∆) 3.06 ± 0.077.

Turning to VDPRIINSENDYSRKQL [NUT1], the protein stability index by setting is: (doa10∆) 3.06 ± 0.072; (pdr5∆) 3.38 ± 0.072; (san1∆) 2.78 ± 0.082; (ubr1∆) 3.06 ± 0.056.

Regarding CESCSTVLCTPTGGKAK [RPS27B], the protein stability index reads like this: (doa10∆) 1.94 ± 0.068; (pdr5∆) 2.5 ± 0.056; (san1∆) 2.07 ± 0.081; (ubr1∆) 2.51 ± 0.053.

On to AKALESLASCLRSTEYS [POP1], for which the protein stability index is, setting by setting: (doa10∆) 3.08 ± 0.16; (pdr5∆) 3.25 ± 0.14; (san1∆) 2.8 ± 0.13; (ubr1∆) 2.61 ± 0.17.

For NRPNTLDPALLRPGRID [RPT1], the protein stability index is 2.72 ± 0.14 (doa10∆), 3.01 ± 0.14 (pdr5∆), 3.16 ± 0.064 (san1∆) and 2.61 ± 0.13 (ubr1∆).

For the sequence REKNALKRLAWQYIVID [ISW2], the protein stability index by setting is: (doa10∆) 2.1 ± 0.099; (pdr5∆) 1.74 ± 0.14; (san1∆) 1.76 ± 0.12; (ubr1∆) 2.03 ± 0.082.

Consider RLAKKPSMKKIKIEPSA [SIR3], for which the protein stability index (doa10∆) amounted to 2.48 ± 0.094, the protein stability index (pdr5∆) amounted to 3.06 ± 0.099, the protein stability index (san1∆) is 2.76 ± 0.071 and the protein stability index (ubr1∆) was 2.88 ± 0.065.

With PRIQRADPVALYLGLKR [RPB5], the protein stability index is, setting by setting: (doa10∆) 1.82 ± 0.11; (pdr5∆) 2.42 ± 0.1; (ubr1∆) 2.28 ± 0.083.

Take NSGKQQYYRGLPLYEKN [SWP82]: the protein stability index is, setting by setting: (doa10∆) 2.56 ± 0.089; (pdr5∆) 2.5 ± 0.06; (san1∆) 2.9 ± 0.075; (ubr1∆) 3.01 ± 0.043.

Regarding DHKRFIVFHNEFSEHTF [DIS3], the protein stability index turned out to be 2.55 ± 0.042 (doa10∆), 2.92 ± 0.048 (pdr5∆), 2.85 ± 0.046 (san1∆) and 3.02 ± 0.038 (ubr1∆).

Turning to YTYHSTNKDNKAELIKP [ARP9], the protein stability index is, setting by setting: (doa10∆) 2.74 ± 0.065; (pdr5∆) 2.69 ± 0.053; (san1∆) 3.06 ± 0.044; (ubr1∆) 2.98 ± 0.063.

With ILLEPIYEVDITVHAPL [SNU114], the protein stability index runs as follows: (doa10∆) 2.57 ± 0.049; (pdr5∆) 2.56 ± 0.06; (san1∆) 2.43 ± 0.085; (ubr1∆) 2.47 ± 0.046.

Turning to YVLSTAVEFESVPLRKG [BRR2], the protein stability index by setting is: (doa10∆) 1.7 ± 0.043; (pdr5∆) 1.45 ± 0.04; (san1∆) 1.93 ± 0.083; (ubr1∆) 1.34 ± 0.036.

For the sequence LDNKGSGEDAEEELWNS [YIL149C/MLP2], the protein stability index runs as follows: (doa10∆) 3.31 ± 0.17; (pdr5∆) 2.92 ± 0.14; (san1∆) 3.16 ± 0.093; (ubr1∆) 3.22 ± 0.1.

Regarding SYLSETLISRISSLFTI [YML103C/NUP188], the protein stability index (doa10∆) is 1.77 ± 0.062, the protein stability index (pdr5∆) is 1.89 ± 0.064, the protein stability index (san1∆) came out at 1.5 ± 0.074 and the protein stability index (ubr1∆) amounted to 2.05 ± 0.083.

LLKELSKNAQFICTTFR [SMC3]: the protein stability index (doa10∆) turned out to be 2.45 ± 0.063, the protein stability index (pdr5∆) came to 2.01 ± 0.052, the protein stability index (san1∆) stood at 1.84 ± 0.1 and the protein stability index (ubr1∆) is 1.94 ± 0.048.

In the case of VFLRNRLKYALNGREVK [RPS4A], the protein stability index came to 2.93 ± 0.099 (doa10∆), 2.82 ± 0.12 (pdr5∆), 2.69 ± 0.086 (san1∆) and 3.06 ± 0.095 (ubr1∆).

With VGKRVRYLVGGNKIQKV [RPS7A], the protein stability index was 1.25 ± 0.084 (doa10∆), 1.98 ± 0.18 (pdr5∆), 1.49 ± 0.26 (san1∆) and 1.7 ± 0.17 (ubr1∆).

Consider MGMDLYKTSKAAQDVWN [FAS1], for which the protein stability index is, setting by setting: (doa10∆) 3.08 ± 0.13; (pdr5∆) 3.37 ± 0.16; (san1∆) 3.08 ± 0.13; (ubr1∆) 3.43 ± 0.077.

Consider IVAAGGGSGAATFSVSQ [CSL4], for which, where the note is “pdr5∆”, the protein stability index worked out at 3.47 ± 0.2.

With ATTQDQVASIIESFVEL [NUT2], the protein stability index is 2.11 ± 0.071 (doa10∆), 2.65 ± 0.076 (pdr5∆), 2.17 ± 0.15 (san1∆) and 2.49 ± 0.054 (ubr1∆).

For TSGTNIAGTFNVGKPDQ [YOR098C/NUP1], the protein stability index worked out at 3.22 ± 0.088 (doa10∆), 3.01 ± 0.11 (pdr5∆), 3.27 ± 0.079 (san1∆) and 3.21 ± 0.1 (ubr1∆).

Take DLKLPPMDAYLKLNHII [SNU114]: the protein stability index was 3.09 ± 0.28 (doa10∆), 2.94 ± 0.18 (pdr5∆), 2.52 ± 0.099 (san1∆) and 2.68 ± 0.12 (ubr1∆).

As to KIIDNPKSFLKKDQSVL [YMR129W/POM152], the protein stability index was 3.06 ± 0.083 (doa10∆), 3.34 ± 0.098 (pdr5∆), 3.07 ± 0.071 (san1∆) and 3.2 ± 0.095 (ubr1∆).

As for SLLNLLNISPFTFGLTV [RPP0], the protein stability index reads like this: (doa10∆) 1.79 ± 0.049; (pdr5∆) 1.91 ± 0.049; (san1∆) 1.56 ± 0.078; (ubr1∆) 1.84 ± 0.044.

In the case of IEGVVILKKNPDYREEE [RPN1], the protein stability index by setting is: (doa10∆) 3.06 ± 0.08; (pdr5∆) 3.09 ± 0.09; (san1∆) 3.1 ± 0.075; (ubr1∆) 3.1 ± 0.062.

With EPIRFLPNQFPLKIHRT [SWI1], the protein stability index runs as follows: (doa10∆) 1.66 ± 0.06; (pdr5∆) 1.81 ± 0.075; (san1∆) 1.59 ± 0.12; (ubr1∆) 1.73 ± 0.07.

With NERRKDLAERASELDES [SMC3], the protein stability index runs as follows: (doa10∆) 2.13 ± 0.058; (pdr5∆) 2.79 ± 0.06; (san1∆) 1.98 ± 0.11; (ubr1∆) 2.97 ± 0.054.

On to DNETPSKKTSPKATSSA [YOR098C/NUP1], for which the protein stability index by setting is: (doa10∆) 2.1 ± 0.05; (pdr5∆) 2.52 ± 0.049; (san1∆) 2.41 ± 0.064; (ubr1∆) 3.026 ± 0.029.
